This note sets out measurements from US20120165265A1, “Calcium Signaling Modulators Involving STIM and ORAI Proteins” (priority 2009, published 2012).

The target in one experiment is T1, CAD (Homo sapiens, UniProt Q13586).
T1 construct: For STIM1 342-448 (CAD); expressed in transfected cells; host or cells: HEK 293T
The experiment in a line: Co-immunoprecipitation of Orai1 fragments with CAD in HEK 293T cells. In kind it is binding. The settings on record: YFP-tagged Orai1 fragment with Flag-myc-CAD in HEK 293T cells. The procedure:
Immunoprecipitation and Immunoblot Analysis. Transfected HEK 293T cells (12-24 h) were washed with PBS and lysed in 50 mM Tris-HCl pH 7.5, 150 mM NaCl, 1% Triton X-100, and protease inhibitors. Lysates were spun at 12,000 rpm for 10 min, and the supernatant was incubated with anti-Flag M2 agarose beads (Sigma), or anti-myc or -HA antibody followed by IgG agarose beads (Pierce). Lysates and immunoprecipitates were subjected to SDS-PAGE, probed with HRP-conjugated secondary antibody and detected by enhanced chemiluminescence (Pierce).
STIM1-CAD BINDS TO THE N- AND C-TERMINI OF ORAI1. To identify regions of Orai1 important for activation by CAD, we characterized the binding of CAD to Orai1 using two approaches. First we expressed fusions of NubG with the N-terminus, the II-III cytoplasmic loop and the C-terminus of Orai1 in yeast together with different CAD-Cub-LV constructs. […] Based on the level of b-gal activity, CAD appears to interact with the Orai1 C-terminus with a higher affinity than with the N-terminus. We next expressed fusions of YFP with the N-terminus, the II-III loop and the C-terminus of Orai1 in HEK 293T cells together with Flag-myc-CAD. […]

Another experiment concerns endogenous CRAC channels. The experiment in a line: NFAT-luciferase assay in HEK 293T (NFAT-Luc) cells. It is filed as cell-based. The settings on record: following treatment with TG+PMA. How it is done:
NFAT-luciferase Assays. HEK 293T cells were co-transfected with the indicated constructs and an NFAT reporter gene (firefly luciferase gene C-terminal to 4×-NFAT site from the IL-2 gene). Cotransfection with the Renilla luciferase (pRLTK) gene driven by the TK promoter was used to control for cell number and transfection efficiency. After 12-18 h, cells were treated with a control DMSO solution (mock), PMA (1 μM), or PMA plus TG (1 μM) for 8 h. Assays were performed using the Dual Luciferase Reporter assay system (Promega). For each condition, luciferase activity was measured with 4 samples taken from duplicate wells using a 96-well automated luminometer (Turner Biosystems). Results are represented as the ratio of firefly to Renilla luciferase activity.
Identifying a Minimal Cytosolic Region of STIM1 that Opens the CRAC Channel. To identify the CRAC-activating domain of STIM1, we first tested a series of soluble cytosolic STIM1 fragments for their ability to activate an NFAT-dependent luciferase reporter gene (NFAT-luc). A series of constructs were generated by progressive truncation of the full-length cytosolic region of STIM1 (FIG. 2A; STIM1234-685; CT-STIM1) and were transiently expressed in a HEK 293T cell line containing NFAT-luc. […]

For experiment [1], the target named is T2, Orai1 (Homo sapiens, UniProt Q96D31).
T2 construct: expressed in transfected cells; host or cells: HEK 293
T2 sequence (Q96D31 whole entry): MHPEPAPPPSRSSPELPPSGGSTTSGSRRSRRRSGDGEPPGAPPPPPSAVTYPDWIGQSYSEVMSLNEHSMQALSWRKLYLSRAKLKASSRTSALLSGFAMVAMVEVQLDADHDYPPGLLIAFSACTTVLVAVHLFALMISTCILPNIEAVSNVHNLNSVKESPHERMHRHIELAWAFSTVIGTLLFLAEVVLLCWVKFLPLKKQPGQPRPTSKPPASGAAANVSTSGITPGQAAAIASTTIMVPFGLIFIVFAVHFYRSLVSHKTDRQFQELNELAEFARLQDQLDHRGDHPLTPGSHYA
The experiment in a line: Puncta formation of STIM1 variants by confocal microscopy in HEK 293 cells. It is filed as cell-based. The settings on record: coexpressed with eGFP-Orai1, TG. How it is done: Confocal Microscopy. 6 h after transfection, HEK 293 cells were plated onto sterilized coverslips coated with poly-D-lysine and maintained in complete DMEM for an additional 12-18 h before imaging in Ringer's solution containing (in mM): 155 NaCl, 4.5 KCl, 2 CaCl2, 1 MgCl2, 10 D-glucose, and 5 Na-Hepes, pH 7.4. To deplete stores, cells were treated with 1 μM TG in Ca2+-free Ringer's (prepared by substituting 2 mM MgCl2 and 1 mM EGTA for CaCl2) for 10 min. eGFP and mCherry were excited simultaneously at 488 and 594 nm, respectively, on a Leica SP2 AOBS inverted confocal microscope equipped with a PL APO 100×/NA 1.4 oil immersion objective. Fluorescence emissions were collected at 615-840 nm (mCherry) and 510-570 nm (eGFP). All experiments were performed at 22-25° C.
Quantitation of STIM1 and Orai1 Recruitment into Puncta. Colocalization of eGFP-Orai1 and mCh-STIM1 variants was analyzed from background-corrected confocal image pairs acquired before and after store depletion. Puncta have two defining characteristics: (1) because they are sites of accumulation, STIM1 and Orai1 fluorescence intensities in puncta are greater than the respective mean intensities measured across the entire cell, and (2) because STIM1 and Orai1 co-localize in puncta, their fluorescence covariance is high. […]

In experiment [2] the target is T2, Orai1. The experiment in a line: Store-operated Ca2+ entry by STIM1 variants, single cell Ca2+ imaging. The settings on record: coexpressed with eGFP-Orai1, TG. It is filed as cell-based. How it is done:
For FIG. 7, cells were loaded as above with 2 μM fura-2/AM for 25 min. Ratiometric Ca2+ imaging was performed with 350 and 380 nm excitation in 2 mM Ca2+ Ringer's solution on an Axiovert 35 inverted microscope using a VideoProbe imaging system as described (Bautista et al., 2002). mCherry-positive cells were identified using a 540±12 nm excitation and a 580LP emission filter (Chroma).
The Role of CAD in Orai1 Binding and Activation by STIM1. A key question is whether CAD is responsible for the clustering and activation of CRAC channels by full-length STIM1 following store depletion. To address this, we measured the ability of mCherry-tagged STIM1 variants containing CAD mutations to co-cluster with eGFP-Orai1 and activate Ca^2+ entry in response to TG (FIG. 7). STIM1-Orai1 colocalization was quantified as the fraction of total STIM1 and Orai1 fluorescence that was recruited to regions of high fluorescence covariance (FIG. 13), while Ca^2+ influx was measured with single cell Ca^2+ imaging. For each set of experiments we measured mCherry and GFP fluorescence to confirm that differences in the activity of the various STIM1 constructs were not due to differences in expression level (FIG. 14).

T1 sequence (Q13586 342-448): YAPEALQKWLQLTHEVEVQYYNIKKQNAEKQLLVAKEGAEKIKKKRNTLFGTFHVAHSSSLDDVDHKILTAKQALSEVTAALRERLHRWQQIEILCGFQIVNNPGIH

B1: Orai11-70: Orai1 fragment aa 1-70 (protein)
chain: MHPEPAPPPSRSSPELPPSGGSTTSGSRRSRRRSGDGEPPGAPPPPPSAVTYPDWIGQSYSEVMSLNEHS
modifications: left off: small tags and cut ends
Take B1: the “co-immunoprecipitation with CAD” value with CAD is on record as “not”.

B2: STIM1-DCAD: WT-STIM1 with the CAD deleted (protein)
chain: LSHSHSEKATGTSSGANSEESTAAEFCRIDKPLCHSEDEKLSFEAVRNIHKLMDDDANGDVDVEESDEFLREDLNYHDPTVKHSTFHGEDKLISVEDLWKAWKSSEVYNWTVDEVVQWLITYVELPQYEETFRKLQLSGHAMPRLAVTNTTMTGTVLKMTDRSHRQKLQLKALDTVLFGPPLLTRHNHLKDFMLVVSIVIGVGGCWFAYIQNRYSKEHMKKMMKDLEGLHRAEQSLHDLQERLHKAQEEHRTVEVEKVHLEKKLRDEINLAKQEAQRLKELREGTENERSRQKYAEEELEQVREALRKAEKELESHSSWSLVAALNIDPSWMGSTRPNPAHFIMTDDVDDMDEEIVSPLSMQSPSLQSSVRQRLTEPQHGLGSQRDLTHSDSESSLHMSDRQRVAPKPPQMSRAADEALNAMTSNGSHRLIEGVHPGSLVEKLPDSPALAKKALLALNHGLDKAHSLMELSPSAPPGGSPHLDSSRSHSPSSPDPDTPSPVGDSRALQASRNTRIPHLAGKKAVAEEDNGSIGEETDSSPGRKKFPLKIFKKPLKK
modifications: left off: large carriers
notes: WT-STIM1 with the CAD deleted
On to B2, for which the “NFAT activation by endogenous channels” value with endogenous CRAC channels is listed as “inhibited NFAT activation”. In addition, the “puncta formation with Orai1 after store depletion” value in the experiment with Orai1 [1] is “failed to form puncta”. Moreover, in the experiment with Orai1 [2], the “Ca2+ entry (SOCE) after store depletion” value is recorded as “failed to form puncta, cluster Orai1 or activate Ca^2+ entry”.
